Source: the supplement of paper PMC10567573

B1: RIPK4 (parent)
chain: VSVNAQTLDGRTPLHLAAQRGHYR

Variants of: B1
Assay: protein stability index of a GFP-peptide fusion (GPS, HEK-293T) (PSI 1-6); higher = more stable
Conditions: c terminus: a fixed tail appended
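Note: lentivirally expressed fusions sorted by FACS into six bins by GFP to DsRed ratio, PSI derived from sequencing read proportions per bin multiplied by bin number.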

Variant	protein stability index
VSVNAQTLDGRDPLHLAAQRGHYR [T12D]	3.68
VSVNAQTLDGRIPLHLAAQRGHYR [T12I]	3.1
VSVNAQTLDGREPLHLAAQRGHYR [T12E]	3.58
VSVNAQTLDGRLPLHLAAQRGHYR [T12L]	2.89
VSVNAQTLDGRPPLHLAAQRGHYR [T12P]	3.54
VSVNAQTLDGRWPLHLAAQRGHYR [T12W]	2.82
VSVNAQTLDGRAPLHLAAQRGHYR [T12A]	3.48
VSVNAQTLDGRSPLHLAAQRGHYR [T12S]	3.35
VSVNAQTLDGRRPLHLAAQRGHYR [T12R]	3.23
VSVNAQTLDGRMPLHLAAQRGHYR [T12M]	3.19
VSVNAQTLDGRKPLHLAAQRGHYR [T12K]	3.72
VSVNAQTLDGRCPLHLAAQRGHYR [T12C]	2.81
VSVNAQTLDGRVPLHLAAQRGHYR [T12V]	3.13
VSVNAQTLDGRQPLHLAAQRGHYR [T12Q]	3.57
VSVNAQTLDGRFPLHLAAQRGHYR [T12F]	2.61
VSVNAQTLDGRYPLHLAAQRGHYR [T12Y]	2.4
VSVNAQTLDGRNPLHLAAQRGHYR [T12N]	2.96
VSVNAQTLDGRHPLHLAAQRGHYR [T12H]	2.68
VSVNAQTLDGRGPLHLAAQRGHYR [T12G]	3.05
VSVNAQTLDGKTPLHLAAQRGHYR [R11K]	3.51
VSVNAQTLDGPTPLHLAAQRGHYR [R11P]	3.38
VSVNAQTLDGWTPLHLAAQRGHYR [R11W]	2.85
VSVNAQTLDGDTPLHLAAQRGHYR [R11D]	3.31
VSVNAQTLDGHTPLHLAAQRGHYR [R11H]	3.11

Variant	protein stability index
VSVNAQTLDGGTPLHLAAQRGHYR [R11G]	2.99
VSVNAQTLDGFTPLHLAAQRGHYR [R11F]	2.65
VSVNAQTLDGMTPLHLAAQRGHYR [R11M]	2.77
VSVNAQTLDGSTPLHLAAQRGHYR [R11S]	3.12
VSVNAQTLDGNTPLHLAAQRGHYR [R11N]	3.42
VSVNAQTLDGTTPLHLAAQRGHYR [R11T]	2.71
VSVNAQTLDGYTPLHLAAQRGHYR [R11Y]	2.98
VSVNAQTLDGCTPLHLAAQRGHYR [R11C]	2.91
VSVNAQTLDGITPLHLAAQRGHYR [R11I]	2.73
VSVNAQTLDGETPLHLAAQRGHYR [R11E]	3.78
VSVNAQTLDGQTPLHLAAQRGHYR [R11Q]	3.62
VSVNAQTLDGLTPLHLAAQRGHYR [R11L]	2.9
VSVNAQTLDGATPLHLAAQRGHYR [R11A]	3.5
VSVNAQTLDGVTPLHLAAQRGHYR [R11V]	2.97
VSVNAQTLDGRTPLYLAAQRGHYR [H15Y]	2.56
VSVNAQTLDGRTPLDLAAQRGHYR [H15D]	3.93
VSVNAQTLDGRTPLELAAQRGHYR [H15E]	3.49
VSVNAQTLDGRTPLNLAAQRGHYR [H15N]	3.64
VSVNAQTLDGRTPLMLAAQRGHYR [H15M]	2.78
VSVNAQTLDGRTPLALAAQRGHYR [H15A]	3.79
VSVNAQTLDGRTPLCLAAQRGHYR [H15C]	3.01
VSVNAQTLDGRTPLFLAAQRGHYR [H15F]	2.58
VSVNAQTLDGRTPLWLAAQRGHYR [H15W]	2.62
VSVNAQTLDGRTPLVLAAQRGHYR [H15V]	3.2

Variant	protein stability index
VSVNAQTLDGRTPLLLAAQRGHYR [H15L]	3.24
VSVNAQTLDGRTPLRLAAQRGHYR [H15R]	3.89
VSVNAQTLDGRTPLSLAAQRGHYR [H15S]	3.74
VSVNAQTLDGRTPLKLAAQRGHYR [H15K]	3.24
VSVNAQTLDGRTPLPLAAQRGHYR [H15P]	3.94
VSVNAQTLDGRTPLQLAAQRGHYR [H15Q]	4.11
VSVNAQTLDGRTPLILAAQRGHYR [H15I]	2.79
VSVNAQTLDGRTPLGLAAQRGHYR [H15G]	3.08
VSVNAQTLDGRTPLTLAAQRGHYR [H15T]	3.73
VSVNAQTLDGRTELHLAAQRGHYR [P13E]	3.26
VSVNAQTLDGRTYLHLAAQRGHYR [P13Y]	1.93
VSVNAQTLDGRTDLHLAAQRGHYR [P13D]	3.56
VSVNAQTLDGRTCLHLAAQRGHYR [P13C]	2.22
VSVNAQTLDGRTFLHLAAQRGHYR [P13F]	2.34
VSVNAQTLDGRTQLHLAAQRGHYR [P13Q]	3.15
VSVNAQTLDGRTGLHLAAQRGHYR [P13G]	2.94
VSVNAQTLDGRTRLHLAAQRGHYR [P13R]	3.1
VSVNAQTLDGRTNLHLAAQRGHYR [P13N]	3.38
VSVNAQTLDGRTSLHLAAQRGHYR [P13S]	3.3
VSVNAQTLDGRTKLHLAAQRGHYR [P13K]	2.78
VSVNAQTLDGRTMLHLAAQRGHYR [P13M]	2.42
VSVNAQTLDGRTLLHLAAQRGHYR [P13L]	2.25
VSVNAQTLDGRTALHLAAQRGHYR [P13A]	3.33
VSVNAQTLDGRTHLHLAAQRGHYR [P13H]	2.9

Variant	protein stability index
VSVNAQTLDGRTILHLAAQRGHYR [P13I]	2.17
VSVNAQTLDGRTVLHLAAQRGHYR [P13V]	2.84
VSVNAQTLDGRTWLHLAAQRGHYR [P13W]	1.75
VSVNAQTLDGRTTLHLAAQRGHYR [P13T]	2.92
VSVNAQTCDGRTPLHLAAQRGHYR [L8C]	3.33
VSVNAQTEDGRTPLHLAAQRGHYR [L8E]	4.33
VSVNAQTWDGRTPLHLAAQRGHYR [L8W]	3.11
VSVNAQTTDGRTPLHLAAQRGHYR [L8T]	3.77
VSVNAQTGDGRTPLHLAAQRGHYR [L8G]	4.26
VSVNAQTMDGRTPLHLAAQRGHYR [L8M]	3.75
VSVNAQTYDGRTPLHLAAQRGHYR [L8Y]	3.07
VSVNAQTIDGRTPLHLAAQRGHYR [L8I]	3.58
VSVNAQTNDGRTPLHLAAQRGHYR [L8N]	3.94
VSVNAQTDDGRTPLHLAAQRGHYR [L8D]	3.74
VSVNAQTHDGRTPLHLAAQRGHYR [L8H]	3.73
VSVNAQTQDGRTPLHLAAQRGHYR [L8Q]	4.05
VSVNAQTKDGRTPLHLAAQRGHYR [L8K]	3.58
VSVNAQTFDGRTPLHLAAQRGHYR [L8F]	3.29
VSVNAQTRDGRTPLHLAAQRGHYR [L8R]	3.37
VSVNAQTVDGRTPLHLAAQRGHYR [L8V]	3.92
VSVNAQTADGRTPLHLAAQRGHYR [L8A]	3.92
VSVNAQTSDGRTPLHLAAQRGHYR [L8S]	3.5
VSVNAQTPDGRTPLHLAAQRGHYR [L8P]	3.95
VSVNAQTLDGRTPVHLAAQRGHYR [L14V]	3.4

Variant	protein stability index
VSVNAQTLDGRTPQHLAAQRGHYR [L14Q]	3.75
VSVNAQTLDGRTPIHLAAQRGHYR [L14I]	3.39
VSVNAQTLDGRTPCHLAAQRGHYR [L14C]	1.96
VSVNAQTLDGRTPDHLAAQRGHYR [L14D]	3.62
VSVNAQTLDGRTPNHLAAQRGHYR [L14N]	3.92
VSVNAQTLDGRTPHHLAAQRGHYR [L14H]	3.96
VSVNAQTLDGRTPFHLAAQRGHYR [L14F]	3.1
VSVNAQTLDGRTPGHLAAQRGHYR [L14G]	3.52
VSVNAQTLDGRTPKHLAAQRGHYR [L14K]	3.96
VSVNAQTLDGRTPEHLAAQRGHYR [L14E]	4.47
VSVNAQTLDGRTPRHLAAQRGHYR [L14R]	3.7
VSVNAQTLDGRTPMHLAAQRGHYR [L14M]	3.26
VSVNAQTLDGRTPYHLAAQRGHYR [L14Y]	3.21
VSVNAQTLDGRTPTHLAAQRGHYR [L14T]	3.5
VSVNAQTLDGRTPWHLAAQRGHYR [L14W]	2.88
VSVNAQTLDGRTPPHLAAQRGHYR [L14P]	4
VSVNAQTLDGRTPAHLAAQRGHYR [L14A]	4.07
VSVNAQTLDGRTPSHLAAQRGHYR [L14S]	3.83
VSVNAQYLDGRTPLHLAAQRGHYR [T7Y]	2.97
VSVNAQVLDGRTPLHLAAQRGHYR [T7V]	3.23
VSVNAQWLDGRTPLHLAAQRGHYR [T7W]	2.32
VSVNAQRLDGRTPLHLAAQRGHYR [T7R]	3.32
VSVNAQSLDGRTPLHLAAQRGHYR [T7S]	3.29
VSVNAQTLNGRTPLHLAAQRGHYR [D9N]	3.33

Variant	protein stability index
VSVNAQTLRGRTPLHLAAQRGHYR [D9R]	3.31
VSVNAQTLPGRTPLHLAAQRGHYR [D9P]	3.49
VSVNAQTLVGRTPLHLAAQRGHYR [D9V]	2.9
VSVNAQTLGGRTPLHLAAQRGHYR [D9G]	3.02
VSVNAQTLIGRTPLHLAAQRGHYR [D9I]	2.33
VSVNAQTLCGRTPLHLAAQRGHYR [D9C]	3.14
VSVNAQTLYGRTPLHLAAQRGHYR [D9Y]	2.48
VSVNAQTLFGRTPLHLAAQRGHYR [D9F]	2.25
VSVNAQTLHGRTPLHLAAQRGHYR [D9H]	3.15
VSVNAQTLMGRTPLHLAAQRGHYR [D9M]	2.62
VSVNAQTLEGRTPLHLAAQRGHYR [D9E]	3.78
VSVNAQTLSGRTPLHLAAQRGHYR [D9S]	3.04
VSVNAQTLTGRTPLHLAAQRGHYR [D9T]	3.22
VSVNAQTLLGRTPLHLAAQRGHYR [D9L]	2.81
VSVNAQTLKGRTPLHLAAQRGHYR [D9K]	2.79
VSVNAQTLWGRTPLHLAAQRGHYR [D9W]	2.35
VSVNAQTLAGRTPLHLAAQRGHYR [D9A]	3.09
VSVNAQTLQGRTPLHLAAQRGHYR [D9Q]	2.92
VSVNAQTLDGRTPLHKAAQRGHYR [L16K]	3.88
VSVNAQTLDGRTPLHYAAQRGHYR [L16Y]	3.45
VSVNAQTLDGRTPLHFAAQRGHYR [L16F]	3.11
VSVNAQTLDGRTPLHQAAQRGHYR [L16Q]	3.83
VSVNAQTLDGRTPLHPAAQRGHYR [L16P]	3.73
VSVNAQTLDGRTPLHCAAQRGHYR [L16C]	3.19

Variant	protein stability index
VSVNAQTLDGRTPLHMAAQRGHYR [L16M]	3.34
VSVNAQTLDGRTPLHHAAQRGHYR [L16H]	3.28
VSVNAQTLDGRTPLHGAAQRGHYR [L16G]	3.45
VSVNAQTLDGRTPLHDAAQRGHYR [L16D]	3.8
VSVNAQTLDGRTPLHSAAQRGHYR [L16S]	4.04
VSVNAQTLDGRTPLHNAAQRGHYR [L16N]	3.97
VSVNAQTLDGRTPLHVAAQRGHYR [L16V]	3.5
VSVNAQTLDGRTPLHAAAQRGHYR [L16A]	3.82
VSVNAQTLDGRTPLHWAAQRGHYR [L16W]	3.09
VSVNAQTLDGRTPLHRAAQRGHYR [L16R]	3.96
VSVNAQTLDGRTPLHTAAQRGHYR [L16T]	3.64
VSVNAQTLDGRTPLHEAAQRGHYR [L16E]	4.29
VSVNAQTLDGRTPLHIAAQRGHYR [L16I]	3.42
VSVNAQTLDGRTPLHLIAQRGHYR [A17I]	2.45
VSVNAQTLDGRTPLHLKAQRGHYR [A17K]	3.41
VSVNAQTLDGRTPLHLNAQRGHYR [A17N]	3.38
VSVNAQTLDGRTPLHLEAQRGHYR [A17E]	3.22
VSVNAQTLDGRTPLHLLAQRGHYR [A17L]	3.02
VSVNAQTLDGRTPLHLGAQRGHYR [A17G]	3.51
VSVNAQTLDGRTPLHLPAQRGHYR [A17P]	3.67
VSVNAQTLDGRTPLHLDAQRGHYR [A17D]	3.33
VSVNAQTLDGRTPLHLCAQRGHYR [A17C]	3.15
VSVNAQTLDGRTPLHLMAQRGHYR [A17M]	3.31
VSVNAQTLDGRTPLHLHAQRGHYR [A17H]	3.27

Variant	protein stability index
VSVNAQTLDGRTPLHLFAQRGHYR [A17F]	2.26
VSVNAQTLDDRTPLHLAAQRGHYR [G10D]	3.69
VSVNAQTLDNRTPLHLAAQRGHYR [G10N]	3.29
VSVNAQTLDPRTPLHLAAQRGHYR [G10P]	3.66
VSVNAQTLDERTPLHLAAQRGHYR [G10E]	3.59
VSVNAQTLDKRTPLHLAAQRGHYR [G10K]	3.09
VSVNAQTLDQRTPLHLAAQRGHYR [G10Q]	3.6
VSVNAQTLDLRTPLHLAAQRGHYR [G10L]	2.81
VSVNAQTLDWRTPLHLAAQRGHYR [G10W]	2.48
VSVNAQTLDSRTPLHLAAQRGHYR [G10S]	3.57
VSVNAQTLDFRTPLHLAAQRGHYR [G10F]	2.4
VSVNAQTLDYRTPLHLAAQRGHYR [G10Y]	2.66
VSVNAQTLDHRTPLHLAAQRGHYR [G10H]	3
VSVNAQTLDVRTPLHLAAQRGHYR [G10V]	3.32
VSVNAQTLDMRTPLHLAAQRGHYR [G10M]	3.12
VSVNAQTLDCRTPLHLAAQRGHYR [G10C]	3.05
VSVNAQTLDARTPLHLAAQRGHYR [G10A]	3.2
VSVNAQTLDRRTPLHLAAQRGHYR [G10R]	3.55
VSVNAQTLDIRTPLHLAAQRGHYR [G10I]	3.38
VSVNAQTLDTRTPLHLAAQRGHYR [G10T]	3.21
